Patent publication US20250051455A1 (Hoffmann-La Roche, published 2025)
Positions count from the first letter of the chain named.

B1: HLA-G-0031 (antibody, V domains shown)
VH: QVKLMQSGAALVKPGTSVKMSCNASGYTFTDYWVSWVKQSHGKRLEWVGEISPNSGASNFDENFKDKATLTVDKSTSTAYMELSRLTSEDSAIYYCTRSSHGSFRWFAYWGQGTLVTVSS
VL: AIVLNQSPSSIVASQGEKVTITCRASSSVSSNHLHWYQQKPGAFPKFVIYSTSQRASGIPSRFSGSGSGTSYSFTISRVEAEDVATYYCQQGSSNPYTFGAGTKLELK
notes: Rat monoclonal antibody obtained from CD rats
B2: HLA-G-0039 (antibody, V domains shown)
VH: EVQLLESGGGLVQPGGSLRLSCAASGFTFSSYAMNWVRQAPGKGLEWVSVISGSGVSTYYADSVKGRFTISRDNSRNTLSLQMNSLRAEDTAVYYCAKDGSYNYGYGDYFDYWGQGTLVTVSS
VL: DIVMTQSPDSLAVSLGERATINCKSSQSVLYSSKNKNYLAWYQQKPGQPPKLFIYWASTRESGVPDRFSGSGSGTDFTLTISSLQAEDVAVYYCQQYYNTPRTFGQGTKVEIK
notes: Human antibody from humanized OmniRat (OMT) rats
B3: HLA-G-0041 (antibody, V domains shown)
VH: B2 VH with S31T, A33G, N35S, S54G, R76K, S80Y, S85R
VL: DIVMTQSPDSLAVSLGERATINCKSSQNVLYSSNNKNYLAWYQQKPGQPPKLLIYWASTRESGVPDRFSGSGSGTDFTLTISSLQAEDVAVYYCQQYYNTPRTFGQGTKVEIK
notes: as for B2
B4: HLA-G-0090 (antibody, V domains shown)
VH: QVQLQQSGPGLLKPSQTLSLTCAISGDSVSSNRAAWNWIRQSPSRGLEWLGRTYYRSKWYNDYAVSVQGRITLIPDTSKNQFSLRLNSVTPEDTAVYYCASVRAVAPFDYWGQGVLVTVSS
VL: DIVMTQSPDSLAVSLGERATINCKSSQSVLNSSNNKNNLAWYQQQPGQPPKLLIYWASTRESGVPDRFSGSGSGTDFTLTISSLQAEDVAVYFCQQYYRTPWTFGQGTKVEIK
notes: as for B2

target: T1, recombinant soluble human HLA-G β2M MHC class I complex, dimer (human); experiment: competition ELISA, one antibody concentration; competitor coated ILT4-Fc
T1 construct: Non-biotinylated; also called HLA-G Dimer; dimeric HLA-G
Description: (§1) The ELISA was set up by coating the Fc tagged ILT2 and ILT4 respectively to Maxisorp microtiter plates. After incubation and washing steps, the respective antibodies were added at a concentration of 100 nM. Soluble His tagged monomeric, dimeric or trimeric HLA-G was added to the wells. After incubation and washing steps, detection of bound receptor was carried out by anti-His-antibody-POD conjugates.
(§2) The above tables summarize the blocking of interaction between rec. HLA-G proteins (monomer and oligomers) to its receptors ILT2 and ILT4 by the described HLAG antibodies at a concentration of 110 nM (*HLAG-0090 was tested at a concentration of 44 nM) as assessed by ELISA. Shown are the % inhibitions of the HLA-G/receptor interaction (for ILT2 and ILT4). The less pronounced ILT4 inhibition depends on the major β2M dependent interaction of this receptor.

% inhibition of ILT4 binding [%]	Binder
54	B1
-105	B2
-113	B3

target: T2, recombinant soluble human HLA-G β2M MHC class I complex, trimer (human); experiment: as above
T2 construct: Non-biotinylated; also called HLA-G Trimer; trimeric HLA-G
Description: as §1, §2

% inhibition of ILT4 binding [%]	Binder
68	B1
-43	B2
-39	B3

target: T3, recombinant soluble human HLA-G β2M MHC class I complex, monomer (human); experiment: as above
T3 construct: His tagged; biotinylated where coated on streptavidin plates, non-biotinylated in SPR; also called HLA-G-0003; wt HLA-G (monomer)
Description: as §1, §2

% inhibition of ILT4 binding [%]	Binder
17	B1
-224	B2
-184	B3

target: T3, recombinant soluble human HLA-G β2M MHC …; experiment: SPR Biacore T200, antibody captured via anti-Fc, HLA-G monomer as analyte, 25 C
Description: Binding kinetics of anti-HLA-G antibodies to human HLA-G, human HLA-G degrafted and human HLA-A2 were investigated by surface plasmon resonance using a BIACORE T200 instrument (GE Healthcare). All experiments were performed at 25° C. using PBS Buffer (pH 7.4+0.05% Tween20) as running buffer and PBS Buffer (+0.1% BSA) as dilution buffer. Anti-human Fc (JIR009-005-098, Jackson) or anti-rat Fc (JIR112-005-071, Jackson) or anti-Mouse Fc (JIR115-005-071, Jackson) antibodies were immobilized on a Series S CM5 Sensor Chip (GE Healthcare) at pH 5.0 by using an amine coupling kit supplied by GE Healthcare. Anti-HLA-G antibodies were captured on the surface leading to a capturing response of 50-200 RU. HLA-G molecules were injected for 180 s at 30 μl/min with concentrations from 2.5 up to 800 nM (2×1:2 and 4×1:3 dilution series) onto the surface (association phase). The dissociation phase was monitored for 300-600 sec by washing with running buffer. The surface was regenerated by injecting H3PO4 (0,85%) for 60+30 seconds for anti-human Fc capturing antibodies, glycine pH1,5 for 60 seconds and glycine pH2,0 for 60 seconds for anti-rat Fc capturing antibodies, H3PO4 (0,85%) for 80+60 seconds for anti-mouse Fc capturing antibodies. Bulk refractive index differences were corrected by subtracting the response obtained from a mock surface. Blank injections were subtracted (double referencing). The derived curves were fitted to a 1:1 Langmuir binding model using the BIAevaluation software.
The above table summarizes the antibody affinities and t½ values against wt and degrafted HLA-G as assessed by Surface plasmon resonance (Biacore) analysis. Binding kinetics of anti-HLA-G antibodies to human HLA-G and human HLA-G degrafted were investigated by surface plasmon resonance using a BIACORE T200 instrument (GE Healthcare). All experiments were performed at 25° C. using PBS Buffer (pH 7.4+0.05% Tween20) as running buffer and PBS Buffer (+0.1% BSA) as dilution buffer. Anti-human Fc (JIR009-005-098, Jackson) or anti-rat Fc (JIR112-005-071, Jackson) or anti-Mouse Fc (JIR115-005-071, Jackson) antibodies were immobilized on a Series S CM5 Sensor Chip (GE Healthcare) at pH 5.0 by using an amine coupling kit supplied by GE Healthcare.

Kd [nM]	koff [s⁻¹]	kon [M⁻¹ s⁻¹]	t 1/2 [min]	Binder
75	0.0037	49000	3	B1
3.6	0.00085	230000	14	B4
0.95	0.00044	460000	27	B2
1.3	0.00049	380000	23	B3

target: T4, human HLA-G expressed on cells (JEG3 natural; SKOV3 HLA-G+ and PA-TU-8902 HLA-G+ transfectants) (human); experiment: flow cytometry, JEG3 cells pre-incubated with antibody (40 µg/ml final); competitor ILT2-Fc chimera
T4 construct: On cells HLA-G stands in an MHC class I complex with beta-2 microglobulin and peptide; these are not specified; also called cell surface HLA-G; HLAG on JEG-3 cells
Description: For analysis, JEG3 cells (ATCC HTB36) were stained with ILT2-Fc fusion proteins (control=no inhibition) with or without pre-incubation with different anti-HLA-G antibodies. For the pre-incubation with anti-HLA-G antibodies 25 μl/well of the cell suspension was transferred into a polypropylene 96-Well V-bottom plate and prechilled in the at 4° C. for 10 min. Anti HLA-G antibodies or reference antibodies (G233, MEM-G/9 or 87G) were diluted in staining buffer to a 2-fold concentration of 80 μg/ml and 25 μl/well of the antibody solution was added to the prepared cells and incubated for 1 h at 5° C. Cells were washed twice with 200 μl/well staining buffer with centrifugation at 300 g for 3 min and finally resuspended in 25 μl/well staining buffer.
The detection of human ILT2-Fc Chimera protein (RD #2017-T2-050) to a) JEG3 cells pre-incubated anti HLA-G mAb or b) untreated JEG3 cells as reference was determined as follows: Briefly, the ILT2-Fc or control human IgG (Jackson-Immuno-Research #009-000-003) were diluted in staining buffer to a 2-fold concentration of 20 μg/ml (ILT2) and 25 μl/well of the ILT2-Fc protein solution was added to the prepared cells and incubated for 2 h at 5° C. Cells were again washed twice with 200 μl/well staining buffer the human ILT2-Fcprotein was detected with fluorescent labeled anti human IgG Fc-gamma specific antibody (F(ab′)₂ Fragment Goat Anti-Human IgG, Fcγ fragment specific-FITC, Jackson-Immuno-Research #109-096-008) at a dilution of 10 μg/ml in staining buffer. Cell pellets were resuspended in 50 μl/well detection antibody. After a 1-hour incubation at 5° C. cells were washed twice with staining buffer, resuspended in 70 μl and measured at a FACS Canto II to determine ILT2 binding to JEG 3 cells.

Inhibition of ILT2 binding to Jeg3 cells [%]	Binder
95.1	B1
91.8	B4
-72.9	B2
-76.7	B3
